Where no end group is shown, it is not given here. The star is where a group is joined. FITC = O=C1OC2(c3ccc(O)cc3Oc3cc(O)ccc32)c2ccc(NC(=S)*)cc21
Assays:
Format in all cases: biochemical
protein kinase A = protein kinase A (Homo sapiens, UniProt P17612); assay: Protein kinase A inhibitor assay with optical probe; details: inhibitor 10 μM, ATP 10 μM
Method: […] After one hour incubation at 30 C, chymotrypsin to a final concentration of 0.8 nM was added and the 460/530 ratio was determined after one hour, as described above (Example 6).

PTP-B = assay: Inhibition of protein tyrosine phosphatase with phosphorylated Src-2 probe; details: read-out: apparent IC50
Method: (§1) Optical probes were first phosphorylated to completion as described above, and samples of phosphorylated optical probe, at a final concentration of 500 nM, were incubated with various concentrations of protein tyrosine phosphatase-B (PTP-B) agarose (Upstate Biotechnology) for 20 minutes at 30 C in 0.1×PBS. At the required time interval, PTP-B-agarose was removed by a brief microfuige spin prior to transfer to 96-well Cytofluor plates for fluorescence measurements, after addition of chymotrypsin (100 nM), as described in Example 1.

Src kinase = target: T1, Src kinase (Homo sapiens, UniProt P12931); assay: Src kinase phosphorylation of optical probes; details: fluorescence after protease incubation; read-out: apparent Km with respect to the Src kinase
T1 construct: purchased Upstate Biotechnology

[1] = test system: protein tyrosine phosphatase-B (PTP-B); assay: Dephosphorylation of phosphorylated optical probes by PTP-B; details: for Fluorescence emission ratio of peptide after protease treatment: phosphorylated probe 500 nM, 20 minutes at 30 C
Method: as §1
In this experiment, the relative rates of dephosphorylation of the phosphorylated Src-2-specific substrate (SEQ. ID. NO: 29) and an abl-specific (SEQ. I.D. No. 4) substrate optical probes by the protein tyrosine phosphatase PTP-B were compared.

protein kinase C = assay: Proteolytic susceptibility of optical probe after protein kinase C phosphorylation; details: chymotrypsin
From the text: To measure protein kinase C activity using the optical probes of the present invention, a peptide ([…], SEQ. ID. NO: 12) was designed in which phosphorylation by protein kinase C occurred at the P′1 position (underlined in SEQ. ID. NO: 12) with respect to the scissile bond cleaved by chymotrypsin. This enabled an optimal protein kinase C recognition motif to placed within the optical probe sequence, and to create a site of phosphorylation that modulated the proteolytic sensitivity of the substrate towards chymotrypsin.

chymotrypsin = chymotrypsin (Bos taurus, UniProt P00766); assay: Chymotrypsin cleavage of optical probe with or without protein kinase A phosphorylation; details: for 460/530 emission ratio, Non-phosphorylated Optical probe / 460/530 emission ratio, Phosphorylated Optical probe: 0.8 nM chymotrypsin
Method: ID. NO: 12, below, (the P′1, position with respect to the protease cleavage site of chymotrypsin).
The peptide ([…], SEQ. ID. NO: 12) was labeled with fluorescein isothiocyanate at the N-termninus and 7-hydroxycoumarin-3-carboxamide at the C-terminus as described above. To determine the relative proteolytic activity of the phosphorylated and non-phosphorylated optical probes, samples of both were prepared. […] Mock kinase reactions with no ATP were used to create non-phosphorylated, control samples. In both cases, the samples were diluted 10 fold with buffer containing 50 mM HEPES, pH 7.5, 10 mM CaCl2 and 0.01% Brij-35, and incubated with 0.8 nM chymotrypsin.

caspase-3 = target: T2, caspase-3 (Homo sapiens, UniProt P42574); assay: Caspase-3 cleavage of optical probe with or without ERK2 phosphorylation; details: 30 minutes exposure to caspase-3
T2 construct: purchased Upstate Biotechnology
T2 sequence (P42574 29-175 limits assumed): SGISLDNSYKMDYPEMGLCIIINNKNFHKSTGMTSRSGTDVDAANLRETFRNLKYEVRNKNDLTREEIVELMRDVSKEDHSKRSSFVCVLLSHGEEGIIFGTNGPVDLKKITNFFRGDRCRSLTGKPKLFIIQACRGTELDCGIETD
T2 sequence (P42574 176-277 limits assumed): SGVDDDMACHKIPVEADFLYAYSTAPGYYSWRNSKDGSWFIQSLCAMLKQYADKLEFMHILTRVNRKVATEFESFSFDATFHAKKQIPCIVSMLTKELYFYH
Method: To determine how phosphorylation on serine in the optical probe (SEQ. ID. NO: 24) effected the rate of caspase-3 cleavage, samples of phosphorylated and control (non-phosphorylated) optical probes were treated with the protease caspase-3. Phosphorylated samples of the optical probe (70 pmol) were prepared by 8 hour to overnight incubation with ERK2 kinase (Biomol). Reactions were typically performed in 10 μl using 200-500 μM ATP and 50-200 ng ERK2 in a buffer consisting of 50 mM HEPES, pH 7.5, 10 mM MgCl2, 1 mM EGTA, and 1 mM DTT at 30° C. Mock kinase reactions were performed for preparation of control (non-phosphorylated) optical probe as above, except ATP was omitted. To monitor cleavage of the optical probes by caspase-3, 10 μL volumes of phosphorylated and control (non-phosphorylated) samples of the optical probe were placed in individual wells of a 96-well multiwell plate. Caspase-3 cleavage reactions were carried out in these samples after dilution to 100 μL in a buffer consisting of 100 mM HEPES, pH 7.5, 5 mM DTT, 0.5 mM EDTA, 20% glycerol, 0.01% Brij-35, and 50-100 ng caspase-3 (Upstate Biotechnology), and incubated at room temperature. Emission readings were taken at 5 minute intervals during the course of the caspase-3 incubation using a Cytofluor plate reader as described in Example 1.

Compound: O=S(=O)(NCCNC/C=C/c1ccc(Br)cc1)c1cccc2cnccc12 [H-89]
- inhibition of protein kinase A activity (protein kinase A): almost complete inhibition

Compound: [O]=[V]([OH])([OH])[OH] [Ortho-vanadate, orthovanadate]
- IC50 (PTP-B): 420 nM

Compound: GEEEIYGVIEK [Src-2, fluorescently labeled optical probe for Src kinase; phosphorylated form is the PTP-B substrate]
- Km (Src kinase): 19 µM
- Fluorescence emission ratio of peptide after protease treatment ([1]; Log concentration of PTP-B −7.7): 17.7
- Fluorescence emission ratio of peptide after protease treatment ([1]; Log concentration of PTP-B −8.7): 17.6
- Fluorescence emission ratio of peptide after protease treatment ([1]; Log concentration of PTP-B −9.7): 15.8
- Fluorescence emission ratio of peptide after protease treatment ([1]; Log concentration of PTP-B −10.7): 5.40
- Fluorescence emission ratio of peptide after protease treatment ([1]; Log concentration of PTP-B −11.7): 1.99
- Fluorescence emission ratio of peptide after protease treatment ([1]; Log concentration of PTP-B −12.7): 1.75
- Fluorescence emission ratio of peptide after protease treatment ([1]; Log concentration of PTP-B −13.7): 1.62
- Fluorescence emission ratio of peptide after protease treatment ([1]; Log concentration of PTP-B −14.7): 1.60
- kcat ([1]; phosphorylated probe, PTP-B): 79 s⁻¹
- Km ([1]; phosphorylated probe, PTP-B, Michaelis-Menten plot, read-out: apparent Km): 1.3 µM

Compound: RRRKFSLRRKA ({FITC}-RRRKFSLRRKA; not fully specified (residue 6, C-terminus)) [SEQ. ID. NO: 12, peptide labeled with fluorescein isothiocyanate at N-terminus and 7-hydroxycoumarin-3-carboxamide at C-terminus; protein kinase A and C probe]
- effect of phosphorylation by protein kinase C on proteolytic susceptibility of the substrate (protein kinase C): significantly modulated
- 460/530 emission ratio, Non-phosphorylated Optical probe (chymotrypsin; time of cleavage 0 minutes): 0.34
- 460/530 emission ratio, Phosphorylated Optical probe (chymotrypsin; time of cleavage 0 minutes): 0.33
- 460/530 emission ratio, Non-phosphorylated Optical probe (chymotrypsin; time of cleavage 10 minutes): 3.15
- 460/530 emission ratio, Phosphorylated Optical probe (chymotrypsin; time of cleavage 10 minutes): 0.54
- 460/530 emission ratio, Non-phosphorylated Optical probe (chymotrypsin; time of cleavage 20 minutes): 6.71
- 460/530 emission ratio, Phosphorylated Optical probe (chymotrypsin; time of cleavage 20 minutes): 0.78
- 460/530 emission ratio, Phosphorylated Optical probe (chymotrypsin; time of cleavage 30 minutes): 1.02
- 460/530 emission ratio, Phosphorylated Optical probe (chymotrypsin; time of cleavage 40 minutes): 1.27
- 460/530 emission ratio, Non-phosphorylated Optical probe (chymotrypsin; time of cleavage 50 minutes): 13.34
- 460/530 emission ratio, Phosphorylated Optical probe (chymotrypsin; time of cleavage 50 minutes): 1.53
- 460/530 emission ratio, Phosphorylated Optical probe (chymotrypsin; time of cleavage 60 minutes): 1.78
- Fold difference in ratios (chymotrypsin; time of cleavage 0 minutes): 1.0
- Fold difference in ratios (chymotrypsin; time of cleavage 10 minutes): 5.8
- Fold difference in ratios (chymotrypsin; time of cleavage 20 minutes): 8.6
- Fold difference in ratios (chymotrypsin; time of cleavage 30 minutes): 9.7
- Fold difference in ratios (chymotrypsin; time of cleavage 40 minutes): 9.5
- Fold difference in ratios (chymotrypsin; time of cleavage 50 minutes): 8.7
- Fold difference in ratios (chymotrypsin; time of cleavage 60 minutes): 7.9

Compound: RVDEPFSPGEK (Optical probe with p-Ser in P′(sub 1)) [SEQ. ID. NO: 24, ERK kinase specific optical probe cleaved by caspase-3]
- maximal difference in emission ratio of phosphorylated and non-phosphorylated optical probes (caspase-3): over a three fold difference
